Test results reported in PMC6659671.

Experiments:
HisBamA S425C (E. coli) = HisBamA S425C (E. coli) (UniProt P0A940); assay: cross-linking
HisBamA G781C (E. coli) [1] = biological target: HisBamA G781C (E. coli) (UniProt P0A940); assay: cross-linking
HisBamA G781C (E. coli) [2] = biological target: HisBamA G781C (E. coli) (UniProt P0A940); assay: cross-linking; kinetics of intermolecular disulfide-bond formation in intact cells; 0.2 mM 4-DPS on ice for 0, 2, 5, 15, 30, 60 and 90 min; quantitated from αStrepII immunoblots

Substance | percent disulfide-bond formation (HisBamA S425C (E. coli)) [%] | percent disulfide-bond formation (HisBamA G781C (E. coli) [1]) [%] | K (rate constant of disulfide-bond formation, single-step fit) (HisBamA G781C (E. coli) [2]) [min⁻¹] | half-time of disulfide-bond formation (HisBamA G781C (E. coli) [2]) [min]
MBP−76EspP Y1298C (from UniProt Q7BSW5) | 28 |  |  | 
MBP−76EspP A1043C (from UniProt Q7BSW5) |  | 42 | 0.038 | 18.2
